Measured values from article PMC2892170 (Biochemistry, 2009).

Target: the molecule itself
Experiment: SEC

B1: Enterococcus faecalis phosphopantothenoylcysteine synthetase (enzyme, UniProt A0ACD6TE34 1-257, looked up)
chain: MDVLVTAGGTSEPIDNVRSITNHSSGGLGKAIAESFLAAGHTVTYVTTKHALRPTQQLDLSIKEIETTVELATTLEQLFAEKQFDAIVHAMAVSDFTTEAAQTEEQFIDSFTQQLSEQTLPKTKEALATIVQNTLNQIADIPQTATKISSDTDRLLIFLKKNPKVIQMIRDKQPQTVLVGFKLLVDVSQEELVQVAQAALVKNRCDFVLANDLMNVHETEHEGLLINETGIVQEACSKQGIGSMIVKNVEKKWREQQ
- stoichiometry N: 2
